This is an account of results in patent US20160053277A1, “Compositions Having Dicamba Decarboxylase Activity and Methods of Use” (PIONEER HI-BRED INTERNATIONAL, INC., priority 2013, published 2016).

Series [1] is described as follows: 14C assay with IPTG-induced recombinant E. coli cells: 14CO2 captured from [14C]-carboxyl-labeled dicamba. To be noted: for decarboxylation activity of dicamba: among the 108 sequences tested, recombinant E. coli cells; for Enzymatic Detection level: dicamba decarboxylation activity of the protein of the given SEQ ID NO, High / Low / No; for Dicamba Decarboxylase Activity: induced recombinant E. coli cells, [14C]-carboxyl-labeled dicamba, 14CO2 capture.

Series [2] is described as follows: Saturation mutagenesis of SEQ ID NO:109: dicamba decarboxylation activity of point mutants (carbon dioxide released). Particulars: decarboxylation activity (carbon dioxide released) of point mutant compared with unmutated backbone protein; backbone SEQ ID NO: 109.

B1: 92 (protein, listed as Chitinophaga pinensis)
chain: MARIVTLEEHVSFPEMTALLPEEILKNRKQSGAALQMQEKLADITGERLTSMKAAGISMQVLSVENTDVYLLPDSLAPAFAAKYNDLLADKISSHSDAFAAFAMLPMTVPEAAADELERAVKTHGFCGAMIKGLINGVFLDAPKFAPVFACAEKLGVPLYIHPGIPPKEVIDAYYSNVGDTKGPNEAIACYGWGWHSETAIHILRLLAAGIFDKYPQLNIIIGHMGEMLPMMWERSNRVFQPGNNGKNQRTLIETFRKQLYITTSGIFTQPPLQIAIDTIGIDNILFSIDYPFSSNQMGIDFLTKAALPAEQLAKMAHGNADRILKF
As to B1, in series [1], the “decarboxylation activity of dicamba” value is “showed decarboxylation activity of dicamba”, the “Enzymatic Detection level” value is “High” and the “Dicamba Decarboxylase Activity” value is reported as “Yes”. Moreover, the “Fold Activity” value in series [2] was 1.7.

B2: 108 (protein, listed as Staphylococcus aureus)
chain: MAKSITFEEHYVIEDIQKETMNAISADPKGVPMKVMLEGLEKKTGFTNADELSHHDERIQFMNNQDVQIQVLSYGNGSPSNLVGQKAIELCQKANDQLANYIAQYPNRFVGFATLPINEPEAAAREFERCINDLGFKGALIMGRAQDGFLDQDKYDIIFKTAENLDVPIYLHPAPVNSDIYQSYYKGNYPEVTAATFACFGYGWHIDVGIHAIHLVLSGIFDRYPKLNMIIGHWGEFIPFFLERMDEALFAEHLNHSVSYYFKNSFYITPSGMLTKPQFDLVKKEVGIDRILYAADYPYIEPEKLGVFLDELGLTDEEKEKISYTNGAKLLGLSSNN
Turning to B2, in series [1], the “decarboxylation activity of dicamba” value was “showed decarboxylation activity of dicamba”, the “Enzymatic Detection level” value is on record as “High” and the “Dicamba Decarboxylase Activity” value is “High”. Besides, the “Fold Activity” value in series [2] was 1.6.

B3: 5 (protein, listed as Staphylococcus aureus)
chain: MAQNNMEANQMKSITFEEHYVIEDIQKETMNAISADPKGVPMKVMLEGLEKKTGFTNADELSHHDERIQFMNNQDVQIQVLSYGNGSPSNLVGQKAIELCQKANDQLANYIAQYPNRFVGFATLPINEPEAAAREFERCINDLGFKGALIMGRAQDGFLDQDKYDIIFKTAENLGVPIYLHPAPVNSDIYQSYYKGNYPEVTAATFACFGYGWHIDVGIHAIHLVLSGIFDRYPKLNMIIGHWGEFIPFFLERMDEALFAEHLNHPVSYYFKNNFYITPSGMLTKPQFDLVKKEAGIDRILYAADYPYIEPEKLGVFLDELGLTDEEKEKISYTNGAKLLGLSSNN
Consider B3, for which, in series [1], the “decarboxylation activity of dicamba” value is on record as “showed decarboxylation activity of dicamba”, the “Enzymatic Detection level” value was “High” and the “Dicamba Decarboxylase Activity” value is “High”. For the same molecule, the “Fold Activity” value in series [2] was 0.8.

B4: 4 (protein, listed as Lactobacillus buchneri)
chain: MAKVITLEEHFSSQKLGQKMAEVLPKRPIGNVSPKMQDYMQRSLPPEAELEDVTGSRIQWMDQHQISMQILSYGNQNPQNSDPKFAVELTKLANDELAKAVAKAPDRFRAFASLPVSHPTDAAAELKRGVEELGFKGAMLVRPTSQAHPFFDDPFYLPIFEAAANLNVPVYLHPSFPDSQIIDYYYSNGPWDDKVSGILGTAGYGWHTDVGIQTVRLLLSGVFEKYPNLKLISGHWGEFASFALERMDQVMYPETNLSEPISKIYRDHVYVTPSGILTEPQLKFVKDEVGIEHLLYSIDYPYIKPENSGSFIESSPLTDEEKELFAHGNAEKLLQL
Regarding B4, in series [1], the “decarboxylation activity of dicamba” value is “showed decarboxylation activity of dicamba”, the “Enzymatic Detection level” value is reported as “High” and the “Dicamba Decarboxylase Activity” value was “High”. In addition, in series [2], the “Fold Activity” value stood at 1.
